Laboratory results as given in US20240084003A1 (SIMCERE ZAIMING PHARMACEUTICAL, published 2024).

Legend:
[1] = target: T1, murine CD22 protein (ACROBiosystems, SI2-M52Ha) (murine, UniProt P35329 22-708); test: ELISA, murine CD22-ECD-His coated
T1 construct: extracellular domain; also called murine CD22-ECD; murine CD22-ECD-His
T1 sequence (looked up): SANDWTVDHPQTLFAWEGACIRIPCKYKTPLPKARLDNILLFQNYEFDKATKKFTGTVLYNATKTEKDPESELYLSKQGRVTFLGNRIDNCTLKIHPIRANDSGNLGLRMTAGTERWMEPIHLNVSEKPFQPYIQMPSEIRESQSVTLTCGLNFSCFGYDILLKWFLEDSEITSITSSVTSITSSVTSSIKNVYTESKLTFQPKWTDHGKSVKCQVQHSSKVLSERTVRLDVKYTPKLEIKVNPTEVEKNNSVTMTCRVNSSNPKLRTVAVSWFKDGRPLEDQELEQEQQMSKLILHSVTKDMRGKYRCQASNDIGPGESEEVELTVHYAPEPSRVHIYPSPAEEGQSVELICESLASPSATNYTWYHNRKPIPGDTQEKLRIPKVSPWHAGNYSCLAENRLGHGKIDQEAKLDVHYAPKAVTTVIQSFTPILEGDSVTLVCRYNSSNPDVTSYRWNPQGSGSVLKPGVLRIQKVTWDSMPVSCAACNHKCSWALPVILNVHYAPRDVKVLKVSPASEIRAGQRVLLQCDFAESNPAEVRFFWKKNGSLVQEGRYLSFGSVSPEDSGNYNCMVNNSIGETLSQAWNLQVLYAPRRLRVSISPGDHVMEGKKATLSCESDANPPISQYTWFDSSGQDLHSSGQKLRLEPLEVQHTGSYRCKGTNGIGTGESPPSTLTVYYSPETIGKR
Summary of the method: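 Plates were coated overnight at 4° C with 2 μg/mL CD22 protein in PBS and blocked with PBS + 2% BSA. Chimeric antibodies were incubated for 2 h at 37° C, then HRP-labelled secondary for 2 h at 37° C. Bound antibody was read by TMB colour development (30 min, RT) stopped with 1.0 N HCl.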

[2] = target: T2, monkey CD22 protein (ACROBiosystems, SI2-R52Ha) (monkey (rhesus monkey in paragraph 148), UniProt H9G1X2 18-686); test: ELISA, monkey CD22-ECD-His coated
T2 construct: extracellular domain; also called monkey CD22-ECD; monkey CD22-ECD-His
T2 sequence: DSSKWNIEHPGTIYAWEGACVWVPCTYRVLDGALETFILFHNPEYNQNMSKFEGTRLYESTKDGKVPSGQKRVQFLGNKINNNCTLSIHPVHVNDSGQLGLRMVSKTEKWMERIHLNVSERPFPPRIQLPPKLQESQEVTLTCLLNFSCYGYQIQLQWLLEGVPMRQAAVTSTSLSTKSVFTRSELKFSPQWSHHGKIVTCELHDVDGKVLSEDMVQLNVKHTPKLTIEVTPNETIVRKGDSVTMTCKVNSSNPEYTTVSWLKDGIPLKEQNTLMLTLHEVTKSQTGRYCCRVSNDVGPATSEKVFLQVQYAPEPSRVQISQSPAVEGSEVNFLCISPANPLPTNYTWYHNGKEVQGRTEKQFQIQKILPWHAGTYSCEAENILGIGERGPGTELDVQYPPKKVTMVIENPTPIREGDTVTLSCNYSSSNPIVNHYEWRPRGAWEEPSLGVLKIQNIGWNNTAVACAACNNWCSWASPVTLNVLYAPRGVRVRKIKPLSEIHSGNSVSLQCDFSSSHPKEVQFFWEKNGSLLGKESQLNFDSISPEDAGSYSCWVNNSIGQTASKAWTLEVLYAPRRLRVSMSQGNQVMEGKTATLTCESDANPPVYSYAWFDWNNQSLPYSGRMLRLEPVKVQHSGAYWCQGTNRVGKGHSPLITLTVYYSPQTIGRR
Method: In order to detect the binding activity of CD22 human-murine chimeric antibodies to CD22 protein, the purified human CD22-ECD-His protein obtained in Example 2 was diluted with PBS to a final concentration of 2 μg/mL, and then added to 96-well ELISA plate at 100 μl/well. The plate was sealed with plastic film and incubated overnight at 4° C., the plate was washed 2 times with PBS the next day, and then a blocking solution [PBS+2% (w/w) BSA] was added for blocking at room temperature for 2 hours. […] After incubation at 37° C. for 2 hours, the plate was washed 3 times with PBS. HRP (horseradish peroxidase)-labeled secondary antibody (purchased from Sigma, catalog number: A0170) was added, and incubated at 37° C. for 2 hours, and the plate was washed 5 times with PBS. TMB substrate was added at 50 μl/well, and incubated at room temperature for 30 minutes, then a stop solution (1.0 N HCl) was added at 50 μl/well.
In order to detect the species cross-binding activity of the chimeric antibodies, an ELISA plate was coated with commercial murine CD22 protein (ACROBiosystems, catalog number: SI2-M52Ha) and monkey CD22 protein (ACROBiosystems, catalog number: SI2-R52Ha), respectively, and the ELISA detection was performed according to the method in Example 5.1.

[3] = target: T3, monkey CD22 (full length, on HEK293T cells) (monkey); test: FACS, HEK293T-monkey CD22 cells (293T as parent cells)
T3 construct: NCBI XP_014979161.2; also called HEK293T-monkey CD22; HEK293T cells overexpressing monkey CD22
T3 chain: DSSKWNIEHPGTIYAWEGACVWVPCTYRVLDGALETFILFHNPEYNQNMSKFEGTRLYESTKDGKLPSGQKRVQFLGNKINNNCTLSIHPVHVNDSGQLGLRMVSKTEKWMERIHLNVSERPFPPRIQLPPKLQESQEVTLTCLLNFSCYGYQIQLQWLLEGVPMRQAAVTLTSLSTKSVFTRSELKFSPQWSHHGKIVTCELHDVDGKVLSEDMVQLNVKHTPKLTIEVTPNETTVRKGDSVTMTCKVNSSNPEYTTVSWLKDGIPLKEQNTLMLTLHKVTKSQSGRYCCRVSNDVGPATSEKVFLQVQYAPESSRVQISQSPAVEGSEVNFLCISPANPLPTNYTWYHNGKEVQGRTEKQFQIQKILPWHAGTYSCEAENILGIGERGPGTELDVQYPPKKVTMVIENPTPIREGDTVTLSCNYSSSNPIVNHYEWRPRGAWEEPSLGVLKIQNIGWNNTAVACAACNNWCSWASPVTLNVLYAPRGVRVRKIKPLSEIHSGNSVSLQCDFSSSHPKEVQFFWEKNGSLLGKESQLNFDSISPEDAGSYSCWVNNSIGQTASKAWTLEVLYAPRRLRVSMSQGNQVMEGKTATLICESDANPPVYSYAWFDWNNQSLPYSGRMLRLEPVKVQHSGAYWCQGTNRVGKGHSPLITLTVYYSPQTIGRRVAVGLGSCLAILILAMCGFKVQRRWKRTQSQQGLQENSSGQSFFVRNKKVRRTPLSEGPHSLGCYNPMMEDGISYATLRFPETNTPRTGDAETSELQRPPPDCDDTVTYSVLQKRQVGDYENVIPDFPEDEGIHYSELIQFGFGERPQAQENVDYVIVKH
Description: The required cells were scale-up cultured in a T-75 cell culture flask to the logarithmic growth phase. For the adherent cell CHO-K1, the medium was aspirated, the cells were washed 2 times with PBS buffer, and then digested with trypsin. After the digestion was terminated, the cells were washed 2 times with PBS buffer. For suspension cell Raji, the medium supernatant was directly centrifuged and discarded, and the cell pellet was washed 2 times with PBS. After counting the cells in the previous step, the cell pellet was resuspended with [PBS+2% (w/w) BSA] blocking solution to 2×10⁶ cells/ml, and added to a 96-well FACS reaction plate at 50 μl/well, and then the chimeric antibody test sample was added at 50 μl/well, and incubated on ice for 2 hours. The mixture was centrifuged and washed 3 times with PBS buffer, Alexa Flour 488-labeled secondary antibody (purchased from Invitrogen, catalog number: A-11013) was added at 50 μl/well, and incubated on ice for 1 hour. The obtained mixture was centrifuged and washed 5 times with PBS, and FACS (FACS Canto™, purchased from BD Company) was used for detection and result analysis. Data analysis was performed by software (CellQuest) to obtain the mean fluorescence density (MFI)of the cells. And then software (GraphPad Prism8) was used for analysis, data fitting, and EC50 value calculation. […] The same method was used to detect the binding of the chimeric antibodies to endogenous CD22-negative cell MoLT4 cells (purchased from ATCC, CRL-1582) and CHO-K1 cells.
HEK293T-monkey CD22 cells were subjected to FACS detection and data analysis according to the method in Example 5.2.

human CD22 domain1-4-His = target: T4, human CD22 domain1-4-His (human, UniProt P20273 20-425); test: ELISA, plate coated with human CD22 domain1-4-His
T4 construct: also called hCD22 domain1-4-His; not shown: His tag
T4 sequence: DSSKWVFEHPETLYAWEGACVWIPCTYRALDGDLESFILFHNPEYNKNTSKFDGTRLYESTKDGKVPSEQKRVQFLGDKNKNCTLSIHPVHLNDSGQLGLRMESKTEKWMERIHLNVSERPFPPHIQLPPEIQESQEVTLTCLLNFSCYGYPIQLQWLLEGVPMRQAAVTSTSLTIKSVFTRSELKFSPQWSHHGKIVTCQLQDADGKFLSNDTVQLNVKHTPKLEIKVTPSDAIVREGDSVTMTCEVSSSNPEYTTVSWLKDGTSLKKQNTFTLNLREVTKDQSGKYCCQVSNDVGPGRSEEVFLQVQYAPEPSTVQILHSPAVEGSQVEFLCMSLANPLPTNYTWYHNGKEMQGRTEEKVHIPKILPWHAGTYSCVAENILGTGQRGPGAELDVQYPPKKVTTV

[4] = target: T5, human CD22-ECD-His protein (human, UniProt P20273 20-687); test: SPR (Biacore), antibody captured on Protein A chip, CD22-ECD-His in solution
T5 construct: Recombinant, from HEK293E cells; also called hCD22-ECD-His; human CD22-His protein; not shown: His tag
T5 sequence: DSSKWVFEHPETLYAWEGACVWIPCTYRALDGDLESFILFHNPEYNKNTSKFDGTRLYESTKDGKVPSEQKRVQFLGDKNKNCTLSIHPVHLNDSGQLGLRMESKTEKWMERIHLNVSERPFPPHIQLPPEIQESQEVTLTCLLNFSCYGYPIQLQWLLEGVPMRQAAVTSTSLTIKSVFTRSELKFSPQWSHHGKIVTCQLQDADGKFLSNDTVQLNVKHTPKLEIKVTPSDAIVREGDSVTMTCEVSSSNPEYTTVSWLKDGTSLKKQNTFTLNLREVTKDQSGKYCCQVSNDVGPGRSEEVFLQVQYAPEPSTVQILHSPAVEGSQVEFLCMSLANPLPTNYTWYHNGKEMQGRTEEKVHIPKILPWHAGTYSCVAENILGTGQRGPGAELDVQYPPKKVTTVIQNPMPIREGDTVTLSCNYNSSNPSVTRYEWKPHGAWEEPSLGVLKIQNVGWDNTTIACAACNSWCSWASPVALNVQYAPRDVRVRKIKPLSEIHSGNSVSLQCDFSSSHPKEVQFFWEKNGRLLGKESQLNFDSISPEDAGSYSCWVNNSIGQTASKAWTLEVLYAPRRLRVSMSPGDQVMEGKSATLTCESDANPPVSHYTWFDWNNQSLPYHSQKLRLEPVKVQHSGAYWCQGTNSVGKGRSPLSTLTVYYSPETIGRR
Summary of the method: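 Antibody captured on Protein A chip, then human CD22-ECD-His injected for 240 s at 30 μL/min, 5 concentrations from 200 nM (1:1 dilution), dissociation up to 600 s, in HBS-EP+ at 25° C. Responses double-referenced; apparent KD and kinetic constants fitted to a Langmuir 1:1 model.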

B1: m971-hIgG1 (antibody, V domains shown)
VH: QVQLQQSGPGLVKPSQTLSLTCAISGDSVSSNSAAWNWIRQSPSRGLEWLGRTYYRSKWYNDYAVSVKSRITINPDTSKNQFSLQLNSVTPEDTAVYYCAREVTGDLEDAFDIWGQGTMVTVSS
VL: DIQMTQSPSSLSASVGDRVTITCRASQTIWSYLNWYQQRPGKAPNLLIYAASSLQSGVPSRFSGRGSGTDFTLTISSLQAEDFATYYCQQSYSIPQTFGQGTKLEIKR
notes: Control antibody; variable regions from US 8,591,889 B on human IgG1 constant regions
B1: no binding (tested: 100 nM) [1]; no binding (tested: 100 nM) [2]; no binding (tested: 10 nM) [3].

B2: F1.60.9 (antibody, human IgG1, kappa, V domains shown)
VH: QVQLKESGPGLVAPSQSLSITCTVSGLSLNNYGVSWVRQPPGKGLEWLGVIWGDGSTNYHSALISRLSISKDNSKSQVFLKLNSLHTDDTATYYCAINWGDYWGQGTTLIVSS
VL: DIKMTQSPSSMNASLGERVTITCKASQDINSYLSWFQQKPGKSPKILIYRANRLIDGVPSRFSGSGSGQDYSLTISSLEYEDMGIYYCLQYGVFPLTFGAGTKLELKR
notes: Chimeric IgG1 kappa
In the case of B2, the binding result (human CD22 domain1-4-His) is reported as “no binding”, the Kd [4] is reported as 0.254 nM and the koff [4] is reported as 7.64e-05 s⁻¹. For the same binder, the kon [4] was 301000 M⁻¹ s⁻¹.

B3: F2.180.16 (antibody, human IgG1, lambda, V domains shown)
VH: EVKLVESGGGLVLPGGSLKISCAASGFTFSDYYMYWIRQTPDKRLEWVAYISNTGYSTFYPDSVKGRFTVSRDNAKNTLYLQMSRLQSEDTAMYYCARHGILYAMDYWGQGTSVTVSS
VL: QPVLTQSSSASFSLGASAKLTCTLSSQYSTYTIGWYQQQPLKPPKYVMELKHDGSRHTGDGIPDRFSGSSSGADRYLSISNIQPEDEATYICGVGDTIKEQFMYVFGGGTKVTVLG
notes: Chimeric IgG1 lambda
For B3, the binding result (human CD22 domain1-4-His) was “no binding”, the Kd [4] was 18.4 nM and the koff [4] was 0.000155 s⁻¹. For the same binder, the kon [4] was 8450 M⁻¹ s⁻¹.
